Experimental data from article PMC5240932, “The Nuclear Receptor HIZR-1 Uses Zinc as a Ligand to Mediate Homeostasis in Response to High Zinc”.
Where a chain is given by its changes, count along the chain named.

T1: HIZR-1 G23E (Caenorhabditis elegans, UniProt G5ED47 1-412, G23E)
T1 sequence: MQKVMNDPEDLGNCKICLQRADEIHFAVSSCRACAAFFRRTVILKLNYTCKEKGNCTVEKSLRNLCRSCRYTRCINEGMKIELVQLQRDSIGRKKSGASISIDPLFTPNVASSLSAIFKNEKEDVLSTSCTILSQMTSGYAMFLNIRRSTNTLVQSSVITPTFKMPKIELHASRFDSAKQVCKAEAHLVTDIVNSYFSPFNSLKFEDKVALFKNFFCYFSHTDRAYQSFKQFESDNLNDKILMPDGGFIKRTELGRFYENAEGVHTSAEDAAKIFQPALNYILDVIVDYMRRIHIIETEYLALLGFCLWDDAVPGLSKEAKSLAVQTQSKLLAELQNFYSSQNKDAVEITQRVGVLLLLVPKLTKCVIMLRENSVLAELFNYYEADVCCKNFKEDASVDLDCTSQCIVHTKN

T2: HIZR-1 R63C (Caenorhabditis elegans, UniProt G5ED47 1-412, R63C)
T2 sequence: T1 sequence with E23G, R63C

T3: HIZR-1 WT (Caenorhabditis elegans, UniProt G5ED47 1-412)
T3 sequence: T1 sequence with E23G

T4: HIZR-1 S30L (Caenorhabditis elegans, UniProt G5ED47 1-412, S30L)
T4 sequence: T1 sequence with E23G, S30L

B1: HZA WT, labeled (cdf-2 promoter) (dsDNA)
DNA 1: TGTGTTATCAATCATAAACTAGAACATGTCTCGAG
DNA 2: CTCGAGACATGTTCTAGTTTATGATTGATAACACA
B2: Mutant HZA, unlabeled competitor (dsDNA)
DNA 1: TGTGTTATCAGAACATACAACATTAATGTCTCGAG
DNA 2: CTCGAGACATTAATGTTGTATGTTCTGATAACACA

How the values were obtained:
HIZR-1 G23E = molecular target: T1, HIZR-1 G23E; test: EMSA; legend: not bound; text: dramatically reduced; Licor Odyssey EMSA Buffer Kit per manufacturer; buffer composition, salt, pH and temperature not stated; settings: protein: recombinant; tags: N-terminal 6xHis (pTrcHisA); label: IRDye700
HIZR-1 R63C = molecular target: T2, HIZR-1 R63C; test: as above; settings: protein: recombinant; tags: N-terminal 6xHis (pTrcHisA); label: IRDye700
HIZR-1 WT [1] = molecular target: T3, HIZR-1 WT; test: EMSA; apparent Kd; constant protein, variable labeled DNA; Licor Odyssey EMSA Buffer Kit per manufacturer; buffer composition, salt, pH and temperature not stated; settings: protein: recombinant; tags: N-terminal 6xHis (pTrcHisA); label: IRDye700
HIZR-1 S30L = molecular target: T4, HIZR-1 S30L; test: EMSA; legend: not bound; text: dramatically reduced; faint fast band of unknown significance; Licor Odyssey EMSA Buffer Kit per manufacturer; buffer composition, salt, pH and temperature not stated; settings: protein: recombinant; tags: N-terminal 6xHis (pTrcHisA); label: IRDye700
HIZR-1 WT [2] = molecular target: T3, HIZR-1 WT; test: competition; EMSA; 5-5000 nM unlabeled mutant vs labeled HZA; does not compete; Licor Odyssey EMSA Buffer Kit per manufacturer; buffer composition, salt, pH and temperature not stated; settings: protein: recombinant; tags: N-terminal 6xHis (pTrcHisA)

Binder	binding result (HIZR-1 G23E)	binding result (HIZR-1 R63C)	Kd (HIZR-1 WT [1])	binding result (HIZR-1 S30L)	binding result (HIZR-1 WT [2])
B1	no binding	no binding	20.4 ± 6.8 nM	no binding	–
B2	–	–	–	–	no binding
